# Where no end group is shown, it is not given here. [ ]: non-standard residue; d: D form. TAMRA = carboxytetramethylrodamine
# Legend:
# Caco-2 monolayers [1] = test: Transport of peroxidase conjugate across Caco-2 monolayers; conditions: 25 µg/ml apical, peroxidase activity
# Experimental: A two-chamber Caco-2 model was used to evaluate the transport of a conjugate comprising peroxidase and a peptide comprising an amino acid sequence of SEQ. ID. NO.:1 across the intestinal barrier (IB) in vitro. […] The medium containing isotope-labeled compound, the SEQ. ID. NO.:1-Peroxidase conjugate ([…]) or Control Peroxidase conjugate ([…]) was added to the apical side of cultured Caco-2 monolayers.
# Caco-2 monolayers [2] = test: Inhibition of phage transport across Caco-2 monolayers by SEQ. ID. NO.:1-Peroxidase conjugate; conditions: 50 μg/ml conjugate, 3 hours
# Experimental: The cell monolayers on the insert filter apically and basolaterally were rinsed twice on each side with PBS and pre-incubated with pre-warmed D-MEM for 30 min. The medium in apical chamber was gently removed. […] The inserts were transferred to the new chamber. ^3H-Manitol was used as a probe to monitor Caco-2 monolayer leakiness. The medium containing isotope-labeled compound, a phage that expresses a peptide comprising an amino acid sequence of SEQ. […] NO.:4 (5×10^9 cfu/ml) or wild-type phage (Control phage 1.5×10^9 cfu/ml) in the presence and absence of 50 μg/ml of SEQ. […] NO.:1-Peroxidase conjugate was added to the apical side. After 3 hours incubation, the media from apical and basolateral sides of the chamber was collected and used to determine the phage and ^3H-manitol transport across Caco-2 monolayers. The relative transport of compounds in % through Caco-2 was calculated as:
# where Cb is a concentration of compound in basolateral chamber, Ca is a concentration of compound in the apical chamber, Vb is a volume of media in basolateral chamber and Va is a volume of media in the apical chamber. The transport of phage that expresses a peptide comprising an amino acid sequence of SEQ. […] NO.:4, or peptide SEQ. […] NO.:1-Peroxidase conjugate was detected.
# Caco-2 monolayers [3] = test: Transport of peptides across Caco-2 monolayers (Transwell, fluorescence); format: in vitro ADME, human; conditions: 50 micromol/L apical
# Experimental: The desired numbers of Transwell (6.5mm diameter, 0.4 μm pore size) were placed in the wells of the tissue culture plates. The filters were wetted with medium (0.1 ml to the apical and 0.6 ml to the basolateral sides of Transwell) for 30 min in the CO2 incubator before the harvest of the cells from the flasks. The cells were re-suspended in the medium 5×10^5 cells/ml and 0.2 ml of cell suspension medium was added to the apical side of the Transwell and cultured in the CO2 incubator. The medium was changed every second day for 8-12 days to obtain well-differentiated monolayers suitable for transport experiences.
# The medium in apical chamber was gently removed. […] The inserts were transferred to the new chamber. […] Peptide SEQ. ID. NO.: 2, or SEQ. ID.
# The concentration of peptide in sample was determined by the fluorescence of the sample using excitation 530 nm, emission 590 nm. The concentration of dextran in samples was determined by the fluorescence of the sample using excitation 480 nm, emission 530 nm.
# CACO 2 cells = test: Digestion of peptide in apical chamber of Caco-2 cells (HPLC); format: in vitro ADME, human
# Experimental: Digestion of peptide SEQ. ID. NO.:2 in apical chamber was determined using HPLC. The samples were diluted 100 times with the media, and 0.200 mL of each was injected on a column RP-HPLC column Vydac 218TP54, pre equilibrated 15 minutes with 5 acetonitroile/water (10 mM phosphoric acid) at flow rate 1 mL per minute. Sample was eluted with two component gradient 1% per minute of acetonitrole (10 mM phosphoric acid)/water (10 mM phosphoric acid) at flow rate 1 mL per minute. Fluorescent detection was used with excitation wavelength 555 nm and emission wavelength 580 nm. The peptide SEQ. ID. NO.: 2 was eluted as sharp peak at 22.3 min. The percentage of remaining peptide was calculated as: […]
# where A—area under the peak at 22.3 min, SUM(Ai)—the sum of area of all peaks eluted between 13 and 26 minutes.
Substance,"Transport through Caco-2 monolayers, P, % (Caco-2 monolayers [1]; 2 hours)","Transport through Caco-2 monolayers, P, % (Caco-2 monolayers [1]; 4 hours)",inhibition of transport of SEQ. ID. NO.:4 phage across Caco-2 monolayers (Caco-2 monolayers [2]),Transport [%] (Caco-2 monolayers [3]; 0.5 h),Transport [%] (Caco-2 monolayers [3]; 1.0 h),Transport [%] (Caco-2 monolayers [3]; 2.0 h),Transport [%] (Caco-2 monolayers [3]; […]),Remaining peptide [%] (CACO 2 cells; 0.5 h incubation with CACO 2 cells),Remaining peptide [%] (CACO 2 cells; 1 h incubation with CACO 2 cells),Remaining peptide [%] (CACO 2 cells; 2 h incubation with CACO 2 cells)
SEQ. ID. NO.:1-Peroxidase Conjugate (Ac-CRVLDGDRTRWG; also: peroxidase conjugate),0.35 ± 0.014%,0.705 ± 0.09%,completely inhibited,–,–,–,–,–,–,–
tamra-D-Ala-D-Ser-D-Ala-D-Arg-D-Val-D-Leu-D-Asp-D-Gly-D-Asp-D-Arg-D-Thr-D-Arg-D-Trp-D-Gly-NH2 ({TAMRA}-[dA][dS][dA][dR][dV][dL][dD]G[dD][dR][dT][dR][dW]G-NH2) [SEQ. ID. NO. 3],–,–,–,0.06%,0.43%,1.03%,0.30%,–,–,–
tamra-Ala-Ser-Ala-Arg-Val-Leu-Asp-Gly-Asp-Arg-Thr-Arg-Trp-Gly-NH2 ({TAMRA}-ASARVLDGDRTRWG-NH2) [SEQ. ID. NO.: 2],–,–,–,0.22%,0.16%,1.23%,0.71%,86%,84%,63%
dextran [reference compound],–,–,–,0.05%,0.16%,0.63%,0.38%,–,–,–
